Assay results from paper PMC3854531.

Biological target: sDMA-containing peptide (Bio-…[sDMA]G[sDMA]G[sDMA]G[sDMA]KPN)
Experiment: SPR

Kd: 27 µM
Substance: His-tagged N-terminal deleted BmPAPI (ΔN-BmPAPI: amino acids 48–629) (domain or fragment)
